The target in the assay is human insulin receptor, B isoform (exon 11+), wild type (human, UniProt P06213). The experiment in a line: flow cytometry on cells.

B1: monoclonal antibody 83-7 against the human insulin receptor (antibody, V domains shown)
VH: QVQLKESGPGLVAPSQSLSITCTVSGFPLTAYGVNWVRQPPGKGLEWLGMIWGDGNTDYNSALKSRLSISKDNSKSQVFLKMNSLQTDDTARYYCARDPYGSKPMDYWGQGTSVTVSS
VL: DIVMSQSPSSLVVSVGEKVTMSCKSSQSLLYSSNQKNFLAWYQQKPGQSPKLLIYWASTRESGVPDRFTGSGSGTDFTLTISSVKAEDLAVYYCQQYFRYRTFGGGTKLEIK
For the molecule B1, the binding result was “binds”.

B2: monoclonal antibody 83-14 against the human insulin receptor (antibody, V domains shown)
VH: QVQLQQSGPELVKPGALVKISCKASGYTFTNYDIHWVKQRPGQGLEWIGWIYPGDGSTKYNEKFKGKATLTADKSSSTAYMHLSSLTSEKSAVYFCAREWAYWGQGTLVTVSA
VL: DIQMTQSPSSLSASLGERVSLTCRASQDIGGNLYWLQQGPDGTIKRLIYATSSLDSGVPKRFSGSRSGSDYSLTISSLESEDFVDYYCLQYSSSPWTFGGGTKLEIK
In the case of B2, the binding result is reported as “binds”.

For the origin of these results see paper PMC12528385 (Nature Communications, 2025).
